The target in this assay is SARS-CoV-2 RBD fused with SD1 (SARS-CoV-2, Wuhan-Hu-1 type, UniProt P0DTC2). In words: ELISA. (In general: ELISA stands for enzyme-linked immunosorbent assay.)

B1: mAb 2-4 (antibody, V domains shown)
VH: QVQLVQSGAEVKKPGASVKVSCKASGYTFTGYYMHWVRQAPGQGLEWMGWINPNSGGTNYTQMFQGRVTMTRDTSISTAYMEVSRLRSDDTAVYYCARDRSWAVVYYYMDVWGKGTTVTVSS
VL: QSALTQPPSASGSPGQSVTISCTGTSSDVGGYNYVSWYQQHPGKAPKLMIYEVSKRPSGVPDRFSGSKSGNTASLTVSGLQAEDEADYYCSSYAGSNNLVFGGGTKLTVL
B1: the binding result is given as “binds”.
